Assay results: US20250304714A1 (Regeneron, published 2025)

How the values were obtained:
human CD3 [1] = target: T1, human CD3 (human, UniProt P07766 23-207; P04234 22-171; P09693 23-182); assay: cell-based or functional assay
[2] = target: T2, human prostate-specific membrane antigen (PSMA) (human, UniProt Q04609 1-750); assay: cell-based or functional assay
[3] = target: T2, human prostate-specific membrane …; assay: flow cytometry (FACS) on B16F10.9/PSMA cells
Experimental: (§1) Briefly, 2×10⁵ cells/well of human CD3-expressing Jurkat, cynomolgus T, or human PSMA-specific expressing cells were incubated with a serial dilution of bispecific antibodies for 30 min at 4° C. After incubation, cells were washed and a goat F(ab′)₂ anti-human Fcγ PE labeled secondary (Jackson Immunolabs) was added to the cells for an additional 30 min. Next, cells were washed, re-suspended in cold PBS+1% BSA and analyzed via flow cytometry on a BD FACS Canto II.
(§2) For FACS analysis, cells were gated by forward scatter height vs. forward scatter area for single events selection, followed by side and forward scatters. The EC₅₀ for cell binding titration was determined using Prism software. Values were calculated using 4-parameter non-linear regression analysis.

human CD3 [4] = target: T1, human CD3; assay: flow cytometry (FACS) on Jurkat cells
Experimental: as §1, §2

cynomolgus CD3 = target: T3, cynomolgus CD3 (cynomolgus); assay: flow cytometry (FACS) on cynomolgus T cells
T3 construct: whole, on cells; also called CD3 on cynomolgus T cells; Cyno T-cells
Experimental: as §1, §2

[5] = target: T4, soluble heterodimeric hCD3 mFc protein (human); assay: SPR at 37° C., antigen-capture format, MASS-1
T4 construct: Heterodimer of two different CD3 chains fused to mFc; the names of the subunits seem to have been lost in the printed text ('hCD3 mFc'); also called soluble heterodimeric CD3 protein; Soluble Human CD3
Experimental: Measurements were conducted on a Sierra Sensors MASS-1 instrument.
In the antigen-capture format, the MASS-1 high-density amine sensor surface was derivatized with a goat anti-mouse IgG2a polyclonal antibody (Southern Biotech). Soluble heterodimeric CD3 protein was captured and the respective antibodies were injected over the captured antigen.
Kinetic association (kₐ) and dissociation (kd) rate constants were determined by processing and fitting the data to a 1:1 binding model using MASS-1 AnalyserR2 curve fitting software. Binding dissociation equilibrium constants (KD) and dissociative half-lives (t_{1/2}) were calculated from the kinetic rate constants as: KD (M)=kd/kₐ; and t_{1/2} (min) (In2/(60*kd).

T2 sequence (Q04609 whole entry): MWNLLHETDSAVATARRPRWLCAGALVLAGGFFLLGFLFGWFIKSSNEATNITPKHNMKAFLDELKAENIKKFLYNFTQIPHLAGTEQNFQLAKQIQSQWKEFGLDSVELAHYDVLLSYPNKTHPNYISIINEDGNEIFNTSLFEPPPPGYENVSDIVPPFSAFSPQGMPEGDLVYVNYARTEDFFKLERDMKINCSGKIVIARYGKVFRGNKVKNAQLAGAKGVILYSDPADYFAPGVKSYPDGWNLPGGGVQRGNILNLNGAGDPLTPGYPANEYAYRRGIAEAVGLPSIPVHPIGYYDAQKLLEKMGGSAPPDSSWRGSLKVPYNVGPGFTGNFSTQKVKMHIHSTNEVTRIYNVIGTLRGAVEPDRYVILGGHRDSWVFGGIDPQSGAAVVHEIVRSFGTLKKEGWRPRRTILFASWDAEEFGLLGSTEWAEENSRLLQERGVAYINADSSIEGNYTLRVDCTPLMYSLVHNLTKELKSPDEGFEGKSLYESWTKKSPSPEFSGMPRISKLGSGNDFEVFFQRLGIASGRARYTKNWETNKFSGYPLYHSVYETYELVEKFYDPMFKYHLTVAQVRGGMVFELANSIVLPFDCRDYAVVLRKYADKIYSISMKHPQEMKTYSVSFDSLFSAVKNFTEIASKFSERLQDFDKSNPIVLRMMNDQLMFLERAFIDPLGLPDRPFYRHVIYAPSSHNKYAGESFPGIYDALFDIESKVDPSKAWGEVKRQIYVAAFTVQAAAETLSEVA
T1 sequence (P07766 23-207 limits assumed, chain 1 of 3): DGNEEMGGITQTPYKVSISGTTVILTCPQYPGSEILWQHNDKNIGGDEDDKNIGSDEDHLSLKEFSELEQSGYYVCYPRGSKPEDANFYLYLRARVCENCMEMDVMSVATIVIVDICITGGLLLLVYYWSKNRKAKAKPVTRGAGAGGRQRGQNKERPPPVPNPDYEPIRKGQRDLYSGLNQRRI
T1 sequence (P04234 22-171 limits assumed, chain 2 of 3): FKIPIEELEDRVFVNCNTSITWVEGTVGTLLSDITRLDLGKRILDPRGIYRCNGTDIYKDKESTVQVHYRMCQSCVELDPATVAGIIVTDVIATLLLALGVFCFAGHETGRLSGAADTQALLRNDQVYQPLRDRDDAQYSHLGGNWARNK
T1 sequence (P09693 23-182 limits assumed, chain 3 of 3): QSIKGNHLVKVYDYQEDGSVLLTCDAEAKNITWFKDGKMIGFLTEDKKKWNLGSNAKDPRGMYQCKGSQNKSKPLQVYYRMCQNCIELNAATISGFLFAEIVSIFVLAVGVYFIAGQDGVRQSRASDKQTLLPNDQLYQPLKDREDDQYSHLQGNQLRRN
T4 sequence (P07766 23-126, chain 1 of 2): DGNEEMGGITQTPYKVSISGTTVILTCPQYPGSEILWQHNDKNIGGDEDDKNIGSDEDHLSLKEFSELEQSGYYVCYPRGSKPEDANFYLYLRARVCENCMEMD
T4 sequence (P04234 22-105, chain 2 of 2, further chain): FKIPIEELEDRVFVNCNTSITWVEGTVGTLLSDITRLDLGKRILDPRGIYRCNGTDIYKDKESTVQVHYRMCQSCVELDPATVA
T3 sequence (Q95LI5 22-198, chain 1 of 3): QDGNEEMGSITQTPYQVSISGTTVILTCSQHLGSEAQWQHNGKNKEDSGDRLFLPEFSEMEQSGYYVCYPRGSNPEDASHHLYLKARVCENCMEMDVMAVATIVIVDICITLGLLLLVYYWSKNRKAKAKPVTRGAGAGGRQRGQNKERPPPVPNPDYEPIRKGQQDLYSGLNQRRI
T3 sequence (Q95LI8 22-171, chain 2 of 3, further chain): as the sequence (P04234 22-171 limits assumed, chain 2 of 3) above, with I5V, N15K, I20V, S32T, D33N, I34N, T64A, S74N, V83L, H141R counted along it
T3 sequence (Q95LI7 23-181, chain 3 of 3, further chain): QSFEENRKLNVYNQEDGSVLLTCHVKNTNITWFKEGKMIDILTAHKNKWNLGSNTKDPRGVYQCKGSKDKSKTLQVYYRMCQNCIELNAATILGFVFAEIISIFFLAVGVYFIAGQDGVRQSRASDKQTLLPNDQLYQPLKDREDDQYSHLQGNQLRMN

Binder | T cell activation EC50 [M] (percent CD69+ of CD2+ T cells) (human CD3 [1]) | 22RV1 Cell depletion EC50 [2] | C4-2 Cell depletion EC50 [2] | TrampC2.PSMA Cell depletion EC50 [2] | EC50 [3] | EC50 (human CD3 [4]) | EC50 (cynomolgus CD3) | Kd [5] | T1/2 [5] | koff [5] | kon [5]
PSMA/CD3-001 (bispecific antibody, V domains shown, also called anti-PSMA x anti-CD3 bispecific antibody with anti-CD3 arm CD3-VH-G5) VH 1: QVQLVESGGGVVQPGRSLRLSCAASGFTFSSYGMHWVRQAPGKGLEWVAVISYAGNNKYYADSVKGRFTVSRDNSKKTLYLQMNSLRSEDTAVYYCAKDSYYDFLTDPDVLDIWGQGTMVTVSS VH 2: EVQLVESGGGLVQPGRSLRLSCAASGFTFDDYSMHWVRQAPGKGLEWVSGISWNSGSIGYADSVKGRFTISRDNAKNSLYLQMNSLRAEDTALYYCAKDGSGYGKFYYYGMDVWGQGTTVTVSS VL: not shown | 1.34e-11 M | 0.00631 nM | 0.0215 nM | 0.0115 nM | 1.31 nM | ~1000 nM |  |  |  |  | 
PSMA/CD3-002 (bispecific antibody, V domains shown, also called REGN4336; anti-PSMA x anti-CD3 bispecific antibody with anti-CD3 arm CD3-VH-G20) VH 1: QVQLVESGGGVVQPGRSLRLSCAASGFTFSSYGMHWVRQAPGKGLEWVAVISYAGNNKYYADSVKGRFTVSRDNSKKTLYLQMNSLRSEDTAVYYCAKDSYYDFLTDPDVLDIWGQGTMVTVSS VH 2: EVQLVESGGGLVQPGRSLRLSCAASGFTFDDYSMHWVRQAPGKGLEWVSGISWNSGSIGYADSVKGRFTISRDNAKNSLYLQMNSLRAEDTALYYCAKYGSGYGKFYYYGMDVWGQGTTVTVSS VL: not shown | 6.11e-12 M | 0.00832 nM | 0.0139 nM |  | 2.09 nM | 210 nM | 6140 nM | 334 nM | 2 min | 0.00577 s⁻¹ | 17300 M⁻¹ s⁻¹
